Assay results from publication doi:10.1101/2022.11.07.515376 (bioRxiv, 2022).

Experiments:
AUC = target: the molecule itself; assay: AUC
SEC = target: the molecule itself; assay: SEC
ITC = target: the molecule itself; assay: ITC

B1: MSMEG_2027, full-length (as used in the solution studies) (enzyme)
chain: MTDAELSPTDWVREQTERILEQGTTDGVHVLDRPIVLFTTTGAKSGKKRYVPLMRVEENGKYAMVASKGGDPKHPSWYFNVKANPTVSVQDGDKVLPDRTARELEGEEREHWWKLAVEAYPPYAEYQTKTDRLIPVFIVE
For B1, the Kd (AUC) was roughly 8 µM, the “stoichiometry N” value (SEC) was 2 and the Kd (ITC) was roughly 1.2 µM.
